According to patent US20210198377A1 (XDCEXPLORER SHANGHAI, published 2021):
Where a chain is given by its changes, count along the chain named. Values belong to the binder of their own block, whether it stands above or below them.

What was measured:
[1] = target: T1, human TPBG-hFc (human, UniProt Q13641 32-355); test: ELISA, coated human TPBG-hFc 1.0 ug/mL; antibody 0.0002 nM
T1 construct: also called immunogen A; hFc tagged TPBG protein; not shown: The human IgG Fc fragment of the pCpC vector (Invitrogen V044-50) and any linker to it
T1 sequence: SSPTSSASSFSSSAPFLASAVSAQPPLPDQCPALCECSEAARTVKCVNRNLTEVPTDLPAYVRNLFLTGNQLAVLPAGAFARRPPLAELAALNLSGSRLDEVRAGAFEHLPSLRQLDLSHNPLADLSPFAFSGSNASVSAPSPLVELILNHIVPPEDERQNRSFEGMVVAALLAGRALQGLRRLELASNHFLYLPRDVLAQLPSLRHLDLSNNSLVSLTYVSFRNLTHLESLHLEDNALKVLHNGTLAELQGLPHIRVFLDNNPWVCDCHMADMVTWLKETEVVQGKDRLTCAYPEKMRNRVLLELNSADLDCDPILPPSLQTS
Description: (§1) The purified immunogen A (as for its method of preparation please refer to step 1 in Example 1) diluting with PBS to a final concentration of 1.0 μg/mL was aliquoted into a 96-well ELISA plate at 100 μL per well, and sealed with a parafilm and incubated at 4° C. overnight. The plate was washed twice with plate washing buffer (PBS containing 0.01% (v/v) Tween 20), and blocked with blocking buffer (PBS containing 0.01% (v/v) Tween 20 and 1% (w/w) BSA) at room temperature for 2 h. The blocking buffer was discarded, and 100 μL per well of the purified antibody obtained from Embodiment 2 was added. After incubating at 37° C. for 2 h, the plate was washed for three times with plate washing buffer (PBS containing 0.01% (v/v) Tween 20). HRP (horseradish peroxidase)-labeled secondary antibody (purchased from Sigma) was added and incubated at 37° C. for 2 h, and the plate was washed for three times using plate washing buffer (PBS containing 0.01% (v/v) Tween 20). 100 μL of TMB substrate was aliquoted into each well, incubated at room temperature for 30 min, and 100 μL of stop buffer (1.0N HCl) per well was subsequently added. A₄₅₀ₙₘ values were read using the ELISA plate reader (SpectraMax 384plus purchased from Molecular Device), and the results were shown in FIG. 6 and table 6. […] In Table 6 the IgG control herein is a mice IgG control, the data in the Table are OD₄₅₀ₘₙ values, and Blank means the OD₄₅₀ₘₙ value when there is only PBS buffer in the plate.

[2] = target: T2, cynomolgus monkey TPBG (full length, on cells) (cynomolgus monkey, UniProt Q4R8Y9 35-420); test: FACS on CHO-K1-cTPBG cells
T2 construct: whole, on cells; On transfected CHO-K1 cells; also called cTPBG; CHO-K1-cTPBG
T2 sequence (looked up): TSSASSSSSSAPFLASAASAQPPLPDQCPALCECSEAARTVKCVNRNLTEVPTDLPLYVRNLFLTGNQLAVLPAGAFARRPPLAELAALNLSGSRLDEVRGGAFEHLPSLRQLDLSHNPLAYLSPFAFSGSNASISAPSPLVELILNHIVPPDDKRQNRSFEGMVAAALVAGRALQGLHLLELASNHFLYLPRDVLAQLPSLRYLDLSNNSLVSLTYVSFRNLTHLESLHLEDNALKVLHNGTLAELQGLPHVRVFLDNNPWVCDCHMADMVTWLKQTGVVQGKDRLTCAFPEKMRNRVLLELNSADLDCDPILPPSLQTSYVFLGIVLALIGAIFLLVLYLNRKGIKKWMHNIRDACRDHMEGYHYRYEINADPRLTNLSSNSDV
Description: The stable cell lines CHO-k1-hTPBG, CHO-k1-cTPBG, CHO-k1-mTPBG (i.e. the CHO-k1-hTPBG 3A2F1, CHO-k1-cTPBG 3F13G4 and CHO-k1-mTPBG 3A3 shown in table 7) and CHO-K1 cells were expanded to a 90% of confluency in T-75 cell culture flasks, the culture medium were removed, and cells were then rinsed twice with HBSS buffer (Hanks Balanced Salt Solution, purchased from Invitrogen) and lysed with enzyme-free cell dissociation buffer (Versene solution purchased from Life technology) and harvested. Harvested cells were rinsed with HBSS buffer twice and counted before diluting with HBSS buffer to 2×10⁶ cells /mL, and 10% goat serum blocking buffer was then added, wherein the percentage is the mass percentage. Cells were incubated on ice for 30 min, and then washed twice with HBSS buffer by centrifugation. The harvested cells were resuspended with FACS buffer (HBSS+1% BSA, wherein the percentage is mass percentage) to a concentration of 2×10⁶ cells /mL. 100 μL per well of the cells was aliquoted to 96-well FACS reaction plates, and 100 μL per well of test sample—the purified TPBG antibody obtaining from Embodiment 2 was added before incubating on ice for 2 h. The plate was washed with the FACS buffer twice by centrifugation, and 100 μL per well of fluorescence (Alexa 488) labeled secondary antibody (purchased from Invitrogen) was then added and incubated on ice for 1 h. The plate was washed with the FACS buffer for three times by centrifugation, follow by resuspending in 100 μL of fixation buffer (4% (v/v) paraformaldehyde). Cells were washed with FACS buffer twice after 10 min, follow by resuspending with 100 μL of FACS buffer. The results were measured and analyzed by FACS (FACS Calibur, purchased from BD). Data analysis was performed by software (CellQuest) to obtain mean fluorescence intensity (MFI) of the cells, follow by calculating EC50 value by software (GraphPad Prism) analysis and data fitting. The analysis results were shown in Table 8 and FIGS. 7-10, and data in FIGS. 7-10 show the mean fluorescence intensity (MFI) of cells.

[3] = target: T1, human TPBG-hFc; test: ELISA, coated human TPBG-hFc 1.0 ug/mL; antibody 0.2 nM
Description: as §1

B2: 39A11G5F2 (antibody, V domains shown)
VH: QVQLQQSGAELMKPGASMRLSCKATGYTFTGYWLEWIKRRPGHGLEWIGEILPGRGSTNYNEKFKGKATFTAETSSNTAYMQLTSLTTEDSAIYYCARGGRDFDNWGQGTTLTVSS
VL: DIQMTQSTSSLSASLGDRVTISCSASQGINNHLNWYQQKPDGTVKLLIYYTSSLHSGVPSRFSGSGSGTDYSLTISNLEPEDIAIYYCQQFSKLPYTFGGGTKVEMK
notes: Mouse hybridoma antibody purified from culture supernatant; also called TPBG antibody; lead antibody
- OD450nm [1]: 0.09 OD450nm
- EC50 [2]: 1.35 nM
- OD450nm [3]: 1.36 OD450nm

B4: 103E2E9C2 (antibody, V domains shown)
VH: EVQLQQSGPVLVKPGASVKMSCEASGYSFIDYYMSWVKQSRGRSLEWIGVFNPYSGEIIYNQKFKGKATLTVDKSSSTAYMELSSLTSEDSGVYSCARLRISYYAIDYWGQGTSVAVSS
VL: ENVLTQSPAIMSASPGEKVTMTCRATSSVSSGHFHWYQQKSGASPKVWIYSTSNLASGVPARFSGSGSGTSFSLTISSVEAEDVATYFCQQYSGYPLTFGGGTKLEIK
notes: as for B2
- OD450nm [1]: 0.1 OD450nm
- EC50 [2]: 0.83 nM
- OD450nm [3]: 1.89 OD450nm

B5: 12B12C7C3 (antibody, V domains shown)
VH: DVQLVESGGGLVQPGGSRKLSCAASGFTFSNFGMHWVRQAPEKGLEWVAYISSGSTSFYYADTVKGRFTISRDNPKNTLFLQMTSLRSEDTAMYYCSRTNSLLRGFFDAWGAGTTVTVSS
VL: DIVLTQSPASLAVSLGQRATISCRASQSVSSSSYTYLHWYQQKPGQPPKLLIKSASNLESGVPARFSGTGSGTDFTLNIHPVEEEDTATYYCQHSWEIPLTFGAGTKLELK
notes: as for B2
- OD450nm [1]: 0.1 OD450nm
- EC50 [2]: 0.59 nM
- OD450nm [3]: 1.67 OD450nm

B6: 36A10D8B12 (antibody, V domains shown)
VH: DVQLQESGPGMVKPSQSLSLTCTVTGYSITSGYDWHWIRHFPGNKLEWMGYISYSGNTNYNPSLKSRISITHNTSKNHFFLRLNSVTTEDTATYYCARGYGNWDAMDYWGQGTSVTVSS
VL: DIVMTQSQKFMSTSVGDRVSVTCKASQIVDTNVAWYQQKPGQSPKALISSASYRYSGVPDRFTGSGSGTDFTLTISNVQSEDLAEYFCQQYNSYPLTFGAGTKLELT
notes: as for B2
- OD450nm [1]: 0.16 OD450nm
- EC50 [2]: 0.6 nM
- OD450nm [3]: 2.15 OD450nm

B8: 106D5G3D10 (antibody, V domains shown)
VH: EVQLVESGGGLVKPGGSLKLSCAASGFTFSDYGMHWVRQAPEKGLEWVGYISSGTYVVYYADTVKGRFTISRDNAKNTLFLQMTSLRSEDTAIYYCSTYGSNPFDYWGQGTTLTVSS
VL: QLVLTQSPAIMSASPGEKVTITCSATSSVSSMHWFQQKPVTSPKLWIYSTSNLASGVPTRFSGSGSGTSYSLTISRMEAEDAATYYCQQRSGYPPIFTFGSGTKLEIK
notes: as for B2
- OD450nm [1]: 0.11 OD450nm
- EC50 [2]: 1.26 nM
- OD450nm [3]: 2.36 OD450nm

B9: 37H9C5G2 (antibody, V domains shown)
VH: QVQLQQSDAELVRPGASVKMSCKVSGYTFTDHTIHWMKQRPEQGLEWIGYIYPRDGSGTYNEKFKGKATLTADKSSSTAYMQLNSLTSEDSAVYFCARDGSSHYWYFDVWGTGTTVTVSS
VL: DIQMTQSPASLSASVGETVTITCRASEIIYNYLAWYQQKQGKSPQLLVYNAKTLAEGVPSRFSGSYSGTQFSLNINSLQSEDFGIYYCQHHHDTPLTFGAGTKLDLK
notes: as for B2
- OD450nm [1]: 0.09 OD450nm
- EC50 [2]: 0.62 nM
- OD450nm [3]: 1.55 OD450nm

The remaining lines, values ahead:

- OD450nm [1]: 0.08 OD450nm
- EC50 [2]: 0.84 nM
- OD450nm [3]: 1.76 OD450nm
B1: 5G4H10G5 (antibody, V domains shown)
VH: EVQLVESGGDLVQPGGSLKLFCAASGFTFSTYGLSWVRQTPDKRLELVATITNNDGSAYYPDSVKGRFTISRDKAKNTLFLQMTSLKSEDTAMYYCARETGFGSSYLFDYWGQGTLVTVSA
VL: NIVMTQTPKFLLVSAGDRVTITCKASQSVSNDVAWYQQKPGQSPKLLIYFATNRYTGVPNRFTGSGYGTEFTFTISSVQAEDLAVYFCQQDYSSPTFGGGTKLEIK
notes: as for B2

- OD450nm [1]: 0.09 OD450nm
- EC50 [2]: 1.54 nM
- OD450nm [3]: 1.39 OD450nm
B3: 52C9E9F6 (antibody, V domains shown)
VH: QVQLQQSGAELMKPGASVKLSCKATGYTFTGYWIEWIKQRPGHGLEWIGEILPGRGSTDYNEKFKGKATFTADTSSNTAYMQLSSLTTEDSAIYYCTRGRLDFTYWGQGTLVTVSA
VL: B2 VL with S7T, N30R, H32Y, I85T, F91Y, L94V, Y96W, V104L, M106I
notes: as for B2

- OD450nm [1]: 0.1 OD450nm
- EC50 [2]: 0.25 nM
- OD450nm [3]: 1.97 OD450nm
B7: 28D4E6A9 (antibody, V domains shown)
VH: DVQLVESGGGLVRPGGSLKLSCAASGFTFSNYVMSWARQSPEKRLEWVAEISTGGSHTYYSDTVTGRFTISRDNAKKALYLEMSSLRSEDTAIYYCIMFYYGSSYSMDYWGQGTSVTVSS
VL: DIQMTQSTSSLSASLGDRITISCRASQDIRNYLNWYQQKPDGTVKLLIYHTSRLHSGVPSRFSGSGSGTDYSLTISNLEQEDIATYFCQQGDTLPLTFGAGTRLELK
notes: as for B2

- OD450nm [1]: 0.11 OD450nm
- EC50 [2]: 2.29 nM
- OD450nm [3]: 2.62 OD450nm
B10: 99E12C7H1 (antibody, V domains shown)
VH: QIQLVQSGPELKKPGETVKISCKPSGYTFTAYGLSWVKQAPGQGFQWMGWINTYSGVPTYTDDFKGRFAFSLETSAGTASLQITNLKNEDTATYFCARSSIPPFEYWGPGTTLTVSS
VL: SFVMTQSPKFLLVSVGDRVTITCKASQSVSNDVAWYQQKPGQPPRVLIYFASNRYTGVPDRFTGSGYGTDFTFTISTVQAEDLALYFCQQDYSSPWTFGGGTKLEIK
notes: as for B2
